Test results from patent publication US20260183408A1, “POLYPEPTIDE AND USE THEREOF” (SHENZHEN CHENYANG BIOLOGICAL TECHNOLOGY CO., LTD, priority 2022, published 2026).
Ends that are not written are not given here.

T1: 5-HT2CR (Mus musculus, UniProt P34968)
T1 construct: The dissolved mouse hippocampal tissue extract (with 500 μg protein); from tissue; host or cells: mouse hippocampus
T1 sequence (P34968 33-459): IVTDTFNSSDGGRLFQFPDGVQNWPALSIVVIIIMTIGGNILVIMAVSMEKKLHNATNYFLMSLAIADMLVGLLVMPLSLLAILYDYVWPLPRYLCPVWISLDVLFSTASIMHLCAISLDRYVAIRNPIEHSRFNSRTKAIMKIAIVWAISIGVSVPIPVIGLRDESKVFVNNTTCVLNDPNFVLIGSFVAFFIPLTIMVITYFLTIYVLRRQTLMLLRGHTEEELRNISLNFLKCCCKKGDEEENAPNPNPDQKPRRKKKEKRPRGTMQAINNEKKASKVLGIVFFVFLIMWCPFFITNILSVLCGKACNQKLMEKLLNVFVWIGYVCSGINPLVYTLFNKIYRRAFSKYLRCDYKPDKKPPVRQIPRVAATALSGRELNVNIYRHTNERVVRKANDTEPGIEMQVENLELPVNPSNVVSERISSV

B1: IL3 region of D2R: GST fusion protein containing the third intracellular loop (IL3) region of D2R, K211-Q373 (protein)
chain: KIYIVLRRRRKRVNTKRSSRAFRAHLRAPLKGNCTHPEDMKLCTVIMKSNGSFPVNRRRVEAARRAQELEMEMLSSTSPPERTRYSPIPPSHHQLTLPDPSHHGLHSTPDSPAKPEKNGHAKDHPKIAKIFEIQTMPNGKTRTSLKTMSRRKLSQQKEKKATQ
modifications: left off: a dimerising Fc or GST; large carriers; small tags and cut ends
notes: GST fusion protein containing the third intracellular loop (IL3) region of D2R, K211-Q373

These molecules were tested against T1, 5-HT2CR (assay: GST pulldown assay for mouse hippocampal tissue with D2R fragments). Details: GST fusion protein of the D2R region, mouse hippocampal tissue extract, Western blotting (FIG. 4).
Type: binding
From the text: In order to identify the binding site of the D2R/5-HT2CR complex, full-length D2R cDNA clone (Genbank Accession No. X51645) was first amplified to obtain the cDNA fragments of the CT region of D2R (D2R-CT, T428-C443) and the third intracellular loop (IL3) region of D2R (D2R-IL3, K211-Q373). These fragments were subcloned into the BamH1/EcoR1 or BamH1/Xho1 site of pGEX-4T-3 plasmids (YouBio no: VT1255). The initiation methionine residue and the termination codon were incorporated when appropriate. All constructs were resequenced to confirm that the splicing fusion was properly achieved. E. coli BL21 viable cells (KangTi Life Technology, no: KTSM104L) were used for expression, and purification was performed to obtain the GST fusion protein containing the IL3 region of D2R (GST-D2R-IL3) and the GST fusion protein containing the CT region of D2R (GST-D2R-CT) from the bacterial lysates.
The dissolved mouse hippocampal tissue extract (with 500 μg protein) was diluted with 1×PBS/1% Triton X-100 and subsequently incubated with 20 μl of protein-GST-resin saturated with only GST protein or 15 μg of the GST fusion protein described above overnight at 4° C. Beads were washed with 1×PBS/1% Triton X-100 for 1-8 times. The bound proteins were eluted with SDS-PAGE Protein Loading Buffer (YeSen, no: 20315ES05), separated with SDS-PAGE, and subjected to Western blotting with their respective antibodies. Results were as shown in panel A of FIG. 4.
According to the method in this Example, pulldown analysis was performed using the GST fusion protein containing the KVC region of D2R (GST-D2R-KVC), the GST fusion protein containing the ES region of D2R (GST-D2R-ES), and the GST fusion protein containing the PQ region of D2R (GST-D2R-PQ), and the Western blotting results were shown in panel B of FIG. 4. […]
“KL polypeptide: K226-L240 region of D2R, SEQ ID NO: 1; tested in the pulldown as GST fusion protein GST-D2R-KL (KRSSRAFRAHLRAPL)” was tested, and the “pull down of 5-HT2CR” value was “could associate with 5-HT2CR”. “KVC region of D2R: GST fusion protein containing the KVC (K211-V270) region of D2R (KIYIVLRRRRKRVNTKRSSRAFRAHLRAPLKGNCTHPEDMKLCTVIMKSNGSFPVNRRRV; cysteine pairing not given here; also: GST fusion protein)” was tested, and the “pull down of 5-HT2CR” value was “could pull down the 5-HT2CR”. In the case of B1, the “pull down of 5-HT2CR” value is reported as “could pull down the 5-HT2CR”.
